Source: patent US20220204603A1 (PHARMABCINE, published 2022)

Assays:
[1] = molecular target: T1, mouse Ang2 (construct not stated) (mouse, UniProt O35608 19-496, limits assumed); experiment: SPR Biacore T200, antibody captured on protein A chip, Ang2 as analyte, 1:1 model
T1 construct: also called mAng2
T1 sequence (looked up): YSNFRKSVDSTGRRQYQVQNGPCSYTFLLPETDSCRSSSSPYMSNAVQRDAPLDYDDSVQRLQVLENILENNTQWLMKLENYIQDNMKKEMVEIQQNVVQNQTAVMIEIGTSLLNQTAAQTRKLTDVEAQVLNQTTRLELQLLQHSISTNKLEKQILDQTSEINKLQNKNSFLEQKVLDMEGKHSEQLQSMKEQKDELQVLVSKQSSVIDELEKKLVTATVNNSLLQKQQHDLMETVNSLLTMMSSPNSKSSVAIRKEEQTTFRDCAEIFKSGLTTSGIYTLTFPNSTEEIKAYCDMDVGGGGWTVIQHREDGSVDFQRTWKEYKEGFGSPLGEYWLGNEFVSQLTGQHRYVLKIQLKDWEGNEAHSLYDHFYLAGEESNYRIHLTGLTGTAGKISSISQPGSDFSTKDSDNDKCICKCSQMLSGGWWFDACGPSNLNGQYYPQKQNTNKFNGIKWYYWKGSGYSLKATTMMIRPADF
Description: To analyze the binding affinity of the selected anti-Ang2 antibodies, affinity analysis for human Ang2 and mouse Ang2 was performed using BIACORE® T200 (GE Healthcare). A protein A sensor chip was used, and an experiment was conducted in accordance with the manufacturer's manual. Detailed analysis conditions are as follows. 2000 response units (RU) of protein A were immobilized, 25 RU of anti-Ang2 antibody candidates were used for binding, and various concentrations of human Ang2 and mouse Ang2 were allowed to bind. The starting concentrations for analysis are 100 nM and 150 nM, respectively. The analysis proceeded at a flow rate of 30 μl/min, the binding and dissociation time of human Ang2 was measured as 300 seconds and 2000 seconds, respectively, and the binding and dissociation time of mouse Ang2 was analyzed as 300 seconds and 1000 seconds, respectively. Analysis was performed using a 1:1 binding model as an analytical model.

[2] = molecular target: T1, mouse Ang2 (construct not stated); experiment: competition ELISA: antibody preincubated with mAng2, binding to coated mouse Tie2-Fc
[3] = molecular target: T2, mAng1-Fc (PharmAbcine) (mouse, UniProt O08538 20-498, limits assumed); experiment: phage ELISA, antigen coated at 1 µg/ml, anti-M13-HRP
T2 construct: In-house (PharmAbcine) Fc fusion; not shown: Fc part
T2 sequence (looked up): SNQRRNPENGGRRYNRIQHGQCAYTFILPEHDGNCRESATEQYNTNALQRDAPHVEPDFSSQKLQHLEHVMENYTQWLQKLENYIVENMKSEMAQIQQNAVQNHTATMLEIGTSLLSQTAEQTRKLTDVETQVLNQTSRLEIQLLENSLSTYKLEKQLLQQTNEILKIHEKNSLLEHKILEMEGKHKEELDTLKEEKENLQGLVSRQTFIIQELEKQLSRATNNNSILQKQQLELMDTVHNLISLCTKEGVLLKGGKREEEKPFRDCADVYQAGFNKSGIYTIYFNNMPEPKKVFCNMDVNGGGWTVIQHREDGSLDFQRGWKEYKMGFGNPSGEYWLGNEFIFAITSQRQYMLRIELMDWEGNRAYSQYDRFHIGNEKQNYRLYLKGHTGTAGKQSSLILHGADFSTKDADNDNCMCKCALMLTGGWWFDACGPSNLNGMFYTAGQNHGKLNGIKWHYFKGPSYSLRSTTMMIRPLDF

[4] = molecular target: hAng2-Fc (PharmAbcine) (human) (UniProt O15123); experiment: as above
[5] = molecular target: T3, Ang2 immobilized on a biosensor (Octet off-rate screening) (Homo sapiens (Human), UniProt O15123 19-496); experiment: Octet (BLI), Ang2 immobilized on biosensor, scFv in solution
T3 construct: also called Ang2 antigen; not shown: It is a His tag if hAng2-his (R&D 623-AN/CF) was used, or an Fc if hAng2-Fc (PharmAbcine) was used
T3 sequence: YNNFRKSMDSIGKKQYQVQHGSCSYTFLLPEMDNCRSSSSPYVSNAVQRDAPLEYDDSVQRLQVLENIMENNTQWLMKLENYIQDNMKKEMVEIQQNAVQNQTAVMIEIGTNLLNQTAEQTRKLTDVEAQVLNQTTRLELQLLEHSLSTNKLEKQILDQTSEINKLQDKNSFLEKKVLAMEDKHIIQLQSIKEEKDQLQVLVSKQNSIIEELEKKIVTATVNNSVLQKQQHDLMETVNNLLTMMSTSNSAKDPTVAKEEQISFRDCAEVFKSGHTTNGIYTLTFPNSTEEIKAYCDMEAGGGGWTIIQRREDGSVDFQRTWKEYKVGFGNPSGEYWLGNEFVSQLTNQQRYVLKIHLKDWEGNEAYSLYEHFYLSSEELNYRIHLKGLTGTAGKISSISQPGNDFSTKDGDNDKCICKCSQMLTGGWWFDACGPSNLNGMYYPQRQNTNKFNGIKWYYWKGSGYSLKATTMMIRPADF

[6] = molecular target: human Ang2 (construct not stated) (human) (UniProt O15123); experiment: Octet (BLI), scFv immobilized on biosensor, human Ang2 in solution

nesvacumab (antibody)
Kd [1]: 0.262 nM | koff [1]: 5.51e-05 s⁻¹ | kon [1]: 210000 M⁻¹ s⁻¹ | IC50 [2]: 10.4 nM

B1: No. 4 monoclonal scFv phage (scFv)
chain: QVQLVESGAEVKRPGESLRISCKTSGYSFTSYWIHWVRQMPGKELEWMGSIYPGNSDTRYSPSFQGHVTISADSSSSTAYLQWSSLKASDTAMYYCTTEGLMNGLHFDMWGQGTMVTVSSDIVMTQTPLSLPVTPGEPASISCRSSQSLLHSLGDNYLDWYLQKPGQSPQLLIYLGSKRAAGVPDRFSGSGSGTDFTLKISRVEAEDVGVYYCMQSLQTPPYTFGQGTKLEIKR
OD [3]: 0.093 OD | OD [4]: 0.835 OD

B2: No. 41 monoclonal scFv phage (scFv)
chain: QVQLVESGGGLVQPGGSLRLSCEASGFAFGRYEMNWVRQAPGKGLEWIAYIDTGGGAKVYADSVKGRFTISRDDSKNSLYLQMNSLRAEDTAVYYCTTEGLMNGLHFDMWGQGTMITVSSDIQMTQSPSTLSASVGDRVAITCRASQAISTWLAWYQQKPGKAPKLLIYTASTLESGVPSRFSGSGSGTDFTLTINSLQPDDFATYYCQQLNSYPYTFGGGTKVEIKR
OD [3]: 0.111 OD

B3: No. 46 monoclonal scFv phage (scFv, V domains shown, not shown: large carriers)
VH: QVQLVESGGGLVQPGRSLRLSCAASGFTFDDCAMHWVRQAPGKGLEWVSGISGNSKNVAYADSVKGRFSISRDDAKNSLYLQMNSLRAEDTAVYYCARDPAYSQFDYWGQGTLITVSS
VL: QSALTQPPSLSATPGQRVTISCSGSSSNVGGYPVNWYQQVPGAAPKLLMYTDYKRPSGVPDRFFGSKSGTSASLAISGLQSEDEADYYCATWDDNLNGYVFGTGTKVTVLG
modifications: scFv linker; phage coat protein fusion
OD [4]: 1.19 OD

B4: No. 46 candidate antibody expressed in the form of scFv (scFv, V domains shown)
VH: QVQLVESGGGLVQPGRSLRLSCAASGFTFDDCAMHWVRQAPGKGLEWVSGISGNSKNVAYADSVKGRFSISRDDAKNSLYLQMNSLRAEDTAVYYCARDPAYSQFDYWGQGTLITVSS
VL: QSALTQPPSLSATPGQRVTISCSGSSSNVGGYPVNWYQQVPGAAPKLLMYTDYKRPSGVPDRFFGSKSGTSASLAISGLQSEDEADYYCATWDDNLNGYVFGTGTKVTVLG
koff [5]: 6.14e-05 s⁻¹

B5: No. 8 monoclonal scFv phage (scFv)
chain: QVQLVESGGGLVKPGGSLRLSCAASGFTFSSYSMNWVRQAPGKGLEWVSSISASDGATYYADSVRGRFTISRDNSRSTLYLQMNSLRAEDTAVYYCAKILAGYSGPMGGMDVWGQGTTVTVSSDIQMTQSPSSLSASVGDRVTITCRASRDISNYLAWYQQKPGKAPKSLIYGASNLQSGVSSQFSGSGSGTDFTLTINSLQPEDSATYYCQQYYSYPLTFGGGTKVDIKR
OD [3]: 0.199 OD | OD [4]: 1.36 OD

B6: No. 8 candidate antibody expressed in the form of scFv (scFv)
chain: QVQLVESGGGLVKPGGSLRLSCAASGFTFSSYSMNWVRQAPGKGLEWVSSISASDGATYYADSVRGRFTISRDNSRSTLYLQMNSLRAEDTAVYYCAKILAGYSGPMGGMDVWGQGTTVTVSSDIQMTQSPSSLSASVGDRVTITCRASRDISNYLAWYQQKPGKAPKSLIYGASNLQSGVSSQFSGSGSGTDFTLTINSLQPEDSATYYCQQYYSYPLTFGGGTKVDIKR
koff [5]: < 1e-07 s⁻¹

B7: No. O4 scFv, optimized anti-Ang2 scFv antibody expressed in E. coli (pET-22b), refolded and purified (scFv, part only; not given: scFv linker and His tag, not shown: small tags and cut ends)
scFv, part: QVQLVESGGGLVKPGGSLRLSCAASGFTFSSYSMNWVRQAPGKGLEWVSSISASDGATYYADSVRGRFTISRDNSRSTLYLQMNSLRAEDTAVYYCAKTLAGYSGPMGGMDVWGQGTTVTVSSDIQMTQSPSSLSASVGDRVTITCRASRDISNYLAWYQQKPGKAPKSLIYGASNLQSGVSSQFSGSGSGTDFTLTINSLQPEDSATYYCQQYYSYPLTFGGGTKVDIKR
Kd [6]: 0.28 nM | koff [6]: 2.54e-05 s⁻¹ | kon [6]: 94000 M⁻¹ s⁻¹

B8: No. 3 monoclonal scFv phage (scFv, V domains shown, not shown: large carriers)
VH: QMQLVQSGGGLVQPGRSLKLSCAASGFSFDDYAMHWVRQAPGKGLEWVATIKDDGSQTYYVDSVKGRFTISRDNAKSSLFLQMNSLRAEDTAVYYCTTEGLMNGLHFDMWGQGTMVTVSS
VL: LVLTQPPSVSGAPGQGVTISCTGSSSNIGAGYDVHWYQQFPGTAPKLLISGNNNRPSGLPDRFSGSKSGTSASLAITGLQAEDEADYYCQSYDSRLGVVFGGGTKLTVLG
modifications: scFv linker; phage coat protein fusion
OD [4]: 1.9 OD

B9: No. 3 candidate antibody expressed in the form of scFv (scFv, V domains shown)
VH: QMQLVQSGGGLVQPGRSLKLSCAASGFSFDDYAMHWVRQAPGKGLEWVATIKDDGSQTYYVDSVKGRFTISRDNAKSSLFLQMNSLRAEDTAVYYCTTEGLMNGLHFDMWGQGTMVTVSS
VL: LVLTQPPSVSGAPGQGVTISCTGSSSNIGAGYDVHWYQQFPGTAPKLLISGNNNRPSGLPDRFSGSKSGTSASLAITGLQAEDEADYYCQSYDSRLGVVFGGGTKLTVLG
koff [5]: 0.000642 s⁻¹

B10: No. 46 monoclonal scFv phage (scFv)
chain: QVQLVESGGGLVQPGRSLRLSCAASGFTFDDCAMHWVRQAPGKGLEWVSGISGNSKNVAYADSVKGRFSISRDDAKNSLYLQMNSLRAEDTAVYYCARDPAYSQFDYWGQGTLITVSSQSALTQPPSLSATPGQRVTISCSGSSSNVGGYPVNWYQQVPGAAPKLLMYTDYKRPSGVPDRFFGSKSGTSASLAISGLQSEDEADYYCATWDDNLNGYVFGTGTKVTVLG
OD [3]: 0.061 OD

B11: No. 4 candidate antibody expressed in the form of scFv (scFv, V domains shown)
VH: QVQLVESGAEVKRPGESLRISCKTSGYSFTSYWIHWVRQMPGKELEWMGSIYPGNSDTRYSPSFQGHVTISADSSSSTAYLQWSSLKASDTAMYYCTTEGLMNGLHFDMWGQGTMVTVSS
VL: DIVMTQTPLSLPVTPGEPASISCRSSQSLLHSLGDNYLDWYLQKPGQSPQLLIYLGSKRAAGVPDRFSGSGSGTDFTLKISRVEAEDVGVYYCMQSLQTPPYTFGQGTKLEIKR
koff [5]: 0.000212 s⁻¹

B12: No. 41 monoclonal scFv phage (scFv, V domains shown, not shown: large carriers)
VH: QVQLVESGGGLVQPGGSLRLSCEASGFAFGRYEMNWVRQAPGKGLEWIAYIDTGGGAKVYADSVKGRFTISRDDSKNSLYLQMNSLRAEDTAVYYCTTEGLMNGLHFDMWGQGTMITVSS
VL: DIQMTQSPSTLSASVGDRVAITCRASQAISTWLAWYQQKPGKAPKLLIYTASTLESGVPSRFSGSGSGTDFTLTINSLQPDDFATYYCQQLNSYPYTFGGGTKVEIKR
modifications: scFv linker; phage coat protein fusion
OD [4]: 0.825 OD

B13: No. 41 candidate antibody expressed in the form of scFv (scFv, V domains shown)
VH: QVQLVESGGGLVQPGGSLRLSCEASGFAFGRYEMNWVRQAPGKGLEWIAYIDTGGGAKVYADSVKGRFTISRDDSKNSLYLQMNSLRAEDTAVYYCTTEGLMNGLHFDMWGQGTMITVSS
VL: DIQMTQSPSTLSASVGDRVAITCRASQAISTWLAWYQQKPGKAPKLLIYTASTLESGVPSRFSGSGSGTDFTLTINSLQPDDFATYYCQQLNSYPYTFGGGTKVEIKR
koff [5]: 1.08e-05 s⁻¹
